Legend:
[1] = 1 TAME unit = 1 μmole TAME hydrolyzed/min at pH 8.2, 25° C.; cited from earlier work
[2] = tested on: (GR)10; assay: Cleavage of (GR)10 by commercial immobilized trypsin (agarose resin) in PBS; type: biochemical; settings: (GR)10 50 μM
Procedure: • Immobilized TPCK-trypsin on agarose resin; ThermoFisher Cat #20230 Lot #TA264999; Activity: 555 TAME units/mL of gel; the resin was washed with PBS • TPCK-trypsin; ThermoFisher Cat #20233 Lot #SB241185; Activity: 308 TAME units/mg of protein • NOTE: One TAME unit is equal to 1 μmole of TAME (p-toluenesulfonyl-L-arginine methyl ester in the presence of Ca2+) hydrolyzed/min at pH 8.2, 25° C. (One TAME unit=19.2 National Formulatory units=57.5 BAEE units
110 μL of 50 μM (GR)10 dipeptide repeats prepared in PBS was added to immobilized trypsin in 0.8 mL centrifuge columns and incubated for the prescribed time at room temperature with end-to-end mixing resin. Columns were spun down 1 minute at 1,000 Xg to recover digested GR dipeptides. Columns were washed with 110 μL of PBS to increase (GR)10 recovery. 100 μL of each samples were transferred to a new tube and 5 μL of 10% TFA followed by 300 μL of Dilution Solution were added. The reaction mixtures were analyzed by LC/MS to determine the concentration of GR repeats of different lengths.

[3] = tested on: iCell® motor neurons; assay: Toxicity of (GR)10, untreated or protease-treated, on iCell motor neurons; type: cell-based; settings: (GR)10 concentrations of 25, 50 and 100 μM
Procedure: 200 μM of (GR)10 were diluted in human cerebrospinal fluid (CSF) and 400 μL were applied to each immobilized proteases. The reaction was incubated 5 minutes at room temperature with end-to-end mixing. Columns were spun down 1 minute at 1,000 Xg to recover digested GR dipeptides. Columns were washed with 12 resin volumes of PBS. The procedure was repeated with 60 minutes digestion time. 100 μL of each samples were transferred to a clean tube, flash-frozen and subsequently used for LC/MS quantification of GR repeats of different lengths. The remaining 300 μL of each samples were flash-frozen and used to assess neuron toxicity.
300 μL of CSF were applied to each immobilized proteases and incubated 60 minutes at room temperature with end-to-end mixing. Columns were spun down 1 minute at 1,000 Xg to recover treated CSF. Samples were flash-frozen and subsequently used to test neuron toxicity.
This example describes the reduced toxicity of (GR)10 on in vitro neuronal cells by digestion of (GR)10 with proteases.

B1: Immobilized trypsin: Immobilized TPCK-trypsin on agarose resin; ThermoFisher Cat #20230 (protein, UniProt P00760 24-246, looked up)
Serine protease 1: IVGGYTCGANTVPYQVSLNSGYHFCGGSLINSQWVVSAAHCYKSGIQVRLGEDNINVVEGNEQFISASKSIVHPSYNSNTLNNDIMLIKLKSAASLNSRVASISLPTSCASAGTQCLISGWGNTKSSGTSYPDVLKCLKAPILSDSSCKSAYPGQITSNMFCAGYLEGGKDSCQGDSGGPVVCSGKLQGIVSWGSGCAQKNKPGVYTKVCNYVSWIKQTIASN
modifications: TPCK-treated, immobilized on agarose resin
[1]
  Activity: 555 TAME units/mL of gel
[2]; 0.625 TAME Units, 0 min
  (GR)1 concentration: BLQ
  (GR)2 concentration: BLQ
  (GR)4 concentration: 0.1 µM
  (GR)6 concentration: BLQ
  (GR)8 concentration: 1.0 µM
  (GR)10 concentration: 68.4 µM
[2]; 0.625 TAME Units, 5 min
  (GR)1 concentration: 248.4 µM
  (GR)2 concentration: 114.9 µM
  (GR)4 concentration: 0.3 µM
  (GR)6 concentration: 0.1 µM
  (GR)8 concentration: BLQ
  (GR)10 concentration: 3.1 µM
[2]; 0.625 TAME Units, 10 min
  (GR)1 concentration: 307.0 µM
  (GR)2 concentration: 89.6 µM
  (GR)4 concentration: 0.2 µM
  (GR)6 concentration: BLQ
  (GR)8 concentration: BLQ
  (GR)10 concentration: 2.1 µM
[2]; 0.625 TAME Units, 30 min
  (GR)1 concentration: 411.7 µM
  (GR)2 concentration: 11.8 µM
  (GR)4 concentration: 0.1 µM
  (GR)6 concentration: BLQ
  (GR)8 concentration: BLQ
  (GR)10 concentration: 0.6 µM
[2]; 0.625 TAME Units, 60 min
  (GR)1 concentration: 465.4 µM
  (GR)2 concentration: 5.6 µM
  (GR)4 concentration: BLQ
  (GR)6 concentration: BLQ
  (GR)8 concentration: BLQ
  (GR)10 concentration: 1.0 µM
[2]; 0.625 TAME Units, 120 min
  (GR)1 concentration: 385.8 µM
  (GR)2 concentration: 1.0 µM
  (GR)4 concentration: BLQ
  (GR)6 concentration: BLQ
  (GR)8 concentration: BLQ
  (GR)10 concentration: 0.1 µM
[2]; 6.25 TAME Units, 0 min
  (GR)1 concentration: 0.2 µM
  (GR)2 concentration: 0.2 µM
  (GR)4 concentration: 0.1 µM
  (GR)6 concentration: BLQ
  (GR)8 concentration: BLQ
  (GR)10 concentration: 32.7 µM
[2]; 6.25 TAME Units, 5 min
  (GR)1 concentration: 391.0 µM
  (GR)2 concentration: 1.2 µM
  (GR)4 concentration: BLQ
  (GR)6 concentration: BLQ
  (GR)8 concentration: BLQ
  (GR)10 concentration: 0.9 µM
[2]; 6.25 TAME Units, 10 min
  (GR)1 concentration: 505.5 µM
  (GR)2 concentration: 3.8 µM
  (GR)4 concentration: 0.1 µM
  (GR)6 concentration: BLQ
  (GR)8 concentration: BLQ
  (GR)10 concentration: 1.6 µM
[2]; 6.25 TAME Units, 30 min
  (GR)1 concentration: 480.2 µM
  (GR)2 concentration: 0.2 µM
  (GR)4 concentration: BLQ
  (GR)6 concentration: BLQ
  (GR)8 concentration: BLQ
  (GR)10 concentration: 0.9 µM
[2]; 6.25 TAME Units, 60 min
  (GR)1 concentration: 409.6 µM
  (GR)2 concentration: 0.1 µM
  (GR)4 concentration: BLQ
  (GR)6 concentration: BLQ
  (GR)8 concentration: BLQ
  (GR)10 concentration: 0.2 µM
[2]; 6.25 TAME Units, 120 min
  (GR)1 concentration: 396.0 µM
  (GR)2 concentration: 0.2 µM
  (GR)4 concentration: BLQ
  (GR)6 concentration: 0.1 µM
  (GR)8 concentration: BLQ
  (GR)10 concentration: 0.1 µM

B2: resins having immobilized clostripain: clostripain immobilized on agarose resin (protein, UniProt P09870 51-181; P09870 191-526, looked up)
Clostripain light chain: NKNQKVTIMYYCDADNNLEGSLLNDIEEMKTGYKDSPNLNLIALVDRSPRYSSDEKVLGEDFSDTRLYKIEHNKANRLDGKNEFPEISTTSKYEANMGDPEVLKKFIDYCKSNYEADKYVLIMANHGGGAR
Clostripain heavy chain: AICWDDSNLDKNGEADCLYMGEISDHLTEKQSVDLLAFDACLMGTAEVAYQYRPGNGGFSADTLVASSPVVWGPGFKYDKIFDRIKAGGGTNNEDDLTLGGKEQNFDPATITNEQLGALFVEEQRDSTHANGRYDQHLSFYDLKKAESVKRAIDNLAVNLSNENKKSEIEKLRGSGIHTDLMHYFDEYSEGEWVEYPYFDVYDLCEKINKSENFSSKTKDLASNAMNKLNEMIVYSFGDPSNNFKEGKNGLSIFLPNGDKKYSTYYTSTKIPHWTMQSWYNSIDTVKYGLNPYGKLSWCKDGQDPEINKVGNWFELLDSWFDKTNDVTGGVNHYQW
modifications: immobilized on agarose resin
[3]
  Effect of protease treatment of (GR)10 on (GR)10 toxicity: abrogation of (GR)10 toxicity

Reference: patent US11419921B2, “Methods of treating neurological disorders” (EnClear Therapies, Inc., priority 2018, dated 2022)
